Patent publication US20240261333A1, “NOVEL TARGETS FOR ENHANCING ANTI-TUMOR IMMUNITY” (THE BROAD INSTITUTE, INC., priority 2021, published 2024)

What was measured:
[1] = target: RCN1 (human) (UniProt Q15293); assay: IgG control IP from lysate of C-FLAG B3GNT2 cells, mass spectrometry
[2] = target: ELOC (human) (UniProt Q15369); assay: as above
[3] = target: PGAM5 (human) (UniProt Q96HS1); assay: as above
[4] = target: RCN1 (human) (UniProt Q15293); assay: anti-FLAG co-IP from lysate of C-FLAG B3GNT2 cells, mass spectrometry
[5] = target: NTPCR (human) (UniProt Q9BSD7); assay: as above
[6] = target: HDGFL2 (human) (UniProt Q7Z4V5); assay: as above
[7] = target: IFI16 (human) (UniProt Q16666); assay: as above
[8] = target: TUBA1C (human) (UniProt Q9BQE3); assay: as above
[9] = target: RPL15 (human) (UniProt P61313); assay: as above
[10] = target: TECR (human) (UniProt Q9NZ01); assay: as above
[11] = target: AIFM1 (human) (UniProt O95831); assay: as above
[12] = target: KTN1 (human) (UniProt Q86UP2); assay: as above
[13] = target: TRAFD1 (human) (UniProt O14545); assay: as above
[14] = target: ABCD1 (human) (UniProt P33897); assay: as above
[15] = target: UBTF (human) (UniProt P17480); assay: as above
[16] = target: ELOC (human) (UniProt Q15369); assay: as above
[17] = target: ERP44 (human) (UniProt Q9BS26); assay: as above
[18] = target: PSMB6 (human) (UniProt P28072); assay: as above
[19] = target: SFXN3 (human) (UniProt Q9BWM7); assay: as above
[20] = target: PDIA4 (human) (UniProt P13667); assay: as above
[21] = target: SLC25A22 (human) (UniProt Q9H936); assay: as above
[22] = target: PGAM5 (human) (UniProt Q96HS1); assay: as above
[23] = target: EEF2 (human) (UniProt P13639); assay: as above
[24] = target: IPO7 (human) (UniProt O95373); assay: as above
[25] = target: DNAJA3 (human) (UniProt Q96EY1); assay: as above
[26] = target: H1FX (human) (UniProt Q92522); assay: as above
[27] = target: LARP4 (human) (UniProt Q71RC2); assay: as above
[28] = target: KPNB1 (human) (UniProt Q14974); assay: as above
[29] = target: ACSL3 (human) (UniProt O95573); assay: as above
[30] = target: FBXO6 (human) (UniProt Q9NRD1); assay: as above
[31] = target: RRBP1 (human) (UniProt Q9P2E9); assay: as above
[32] = target: RPL34 (human) (UniProt P49207); assay: as above
[33] = target: STAU1 (human) (UniProt O95793); assay: as above
[34] = target: PXN (human) (UniProt P49023); assay: as above
[35] = target: LDHA (human) (UniProt P00338); assay: as above
[36] = target: ATAD3A (human) (UniProt Q9NVI7); assay: as above
[37] = target: HSP90AB1 (human) (UniProt P08238); assay: as above
[38] = target: ZRANB2 (human) (UniProt O95218); assay: as above
Sequence of ZRANB2 (human) (O95218 other isoform, or with tags, fused parts or gaps limits assumed): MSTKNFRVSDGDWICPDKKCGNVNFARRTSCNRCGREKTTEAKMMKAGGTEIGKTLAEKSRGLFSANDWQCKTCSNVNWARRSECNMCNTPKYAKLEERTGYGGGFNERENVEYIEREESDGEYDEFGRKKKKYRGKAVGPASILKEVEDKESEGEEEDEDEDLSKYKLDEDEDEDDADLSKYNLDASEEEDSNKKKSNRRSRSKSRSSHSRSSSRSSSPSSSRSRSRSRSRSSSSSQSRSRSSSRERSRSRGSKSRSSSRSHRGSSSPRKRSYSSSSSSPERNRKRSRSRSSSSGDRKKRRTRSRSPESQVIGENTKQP

Sequence of PGAM5 (human) (Q96HS1 whole entry): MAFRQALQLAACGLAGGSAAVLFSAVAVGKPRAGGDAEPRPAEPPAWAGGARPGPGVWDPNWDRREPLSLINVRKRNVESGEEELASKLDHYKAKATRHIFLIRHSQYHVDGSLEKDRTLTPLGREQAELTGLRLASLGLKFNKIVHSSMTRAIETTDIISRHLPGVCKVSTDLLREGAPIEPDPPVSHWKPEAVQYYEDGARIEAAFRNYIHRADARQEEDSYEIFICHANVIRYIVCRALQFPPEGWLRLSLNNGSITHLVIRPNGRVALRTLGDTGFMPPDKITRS
Sequence of RCN1 (human) (Q15293 30-331 limits assumed): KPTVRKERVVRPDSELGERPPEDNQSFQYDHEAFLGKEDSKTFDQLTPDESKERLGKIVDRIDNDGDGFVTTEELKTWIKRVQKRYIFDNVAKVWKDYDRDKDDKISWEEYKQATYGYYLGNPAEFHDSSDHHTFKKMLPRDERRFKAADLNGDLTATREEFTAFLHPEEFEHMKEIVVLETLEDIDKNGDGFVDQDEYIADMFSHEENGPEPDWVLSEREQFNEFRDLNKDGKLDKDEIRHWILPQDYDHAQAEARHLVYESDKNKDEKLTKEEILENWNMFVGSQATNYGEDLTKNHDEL
Sequence of ELOC (human) (Q15369 whole entry): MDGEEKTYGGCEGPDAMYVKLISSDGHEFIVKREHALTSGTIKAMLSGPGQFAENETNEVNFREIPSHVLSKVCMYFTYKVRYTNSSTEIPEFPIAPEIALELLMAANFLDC
Sequence of DNAJA3 (human) (Q96EY1 other isoform, or with tags, fused parts or gaps limits assumed): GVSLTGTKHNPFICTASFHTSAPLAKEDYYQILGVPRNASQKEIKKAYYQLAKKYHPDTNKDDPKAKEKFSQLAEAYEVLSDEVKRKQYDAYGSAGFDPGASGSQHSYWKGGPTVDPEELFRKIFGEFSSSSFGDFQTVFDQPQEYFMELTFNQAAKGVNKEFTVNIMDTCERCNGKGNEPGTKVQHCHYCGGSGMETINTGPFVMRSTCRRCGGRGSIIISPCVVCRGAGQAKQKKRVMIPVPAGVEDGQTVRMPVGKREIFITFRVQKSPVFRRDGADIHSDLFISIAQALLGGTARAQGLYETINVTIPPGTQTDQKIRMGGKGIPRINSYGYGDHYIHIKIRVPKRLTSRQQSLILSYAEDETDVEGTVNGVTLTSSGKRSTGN
Sequence of KTN1 (human) (Q86UP2 whole entry): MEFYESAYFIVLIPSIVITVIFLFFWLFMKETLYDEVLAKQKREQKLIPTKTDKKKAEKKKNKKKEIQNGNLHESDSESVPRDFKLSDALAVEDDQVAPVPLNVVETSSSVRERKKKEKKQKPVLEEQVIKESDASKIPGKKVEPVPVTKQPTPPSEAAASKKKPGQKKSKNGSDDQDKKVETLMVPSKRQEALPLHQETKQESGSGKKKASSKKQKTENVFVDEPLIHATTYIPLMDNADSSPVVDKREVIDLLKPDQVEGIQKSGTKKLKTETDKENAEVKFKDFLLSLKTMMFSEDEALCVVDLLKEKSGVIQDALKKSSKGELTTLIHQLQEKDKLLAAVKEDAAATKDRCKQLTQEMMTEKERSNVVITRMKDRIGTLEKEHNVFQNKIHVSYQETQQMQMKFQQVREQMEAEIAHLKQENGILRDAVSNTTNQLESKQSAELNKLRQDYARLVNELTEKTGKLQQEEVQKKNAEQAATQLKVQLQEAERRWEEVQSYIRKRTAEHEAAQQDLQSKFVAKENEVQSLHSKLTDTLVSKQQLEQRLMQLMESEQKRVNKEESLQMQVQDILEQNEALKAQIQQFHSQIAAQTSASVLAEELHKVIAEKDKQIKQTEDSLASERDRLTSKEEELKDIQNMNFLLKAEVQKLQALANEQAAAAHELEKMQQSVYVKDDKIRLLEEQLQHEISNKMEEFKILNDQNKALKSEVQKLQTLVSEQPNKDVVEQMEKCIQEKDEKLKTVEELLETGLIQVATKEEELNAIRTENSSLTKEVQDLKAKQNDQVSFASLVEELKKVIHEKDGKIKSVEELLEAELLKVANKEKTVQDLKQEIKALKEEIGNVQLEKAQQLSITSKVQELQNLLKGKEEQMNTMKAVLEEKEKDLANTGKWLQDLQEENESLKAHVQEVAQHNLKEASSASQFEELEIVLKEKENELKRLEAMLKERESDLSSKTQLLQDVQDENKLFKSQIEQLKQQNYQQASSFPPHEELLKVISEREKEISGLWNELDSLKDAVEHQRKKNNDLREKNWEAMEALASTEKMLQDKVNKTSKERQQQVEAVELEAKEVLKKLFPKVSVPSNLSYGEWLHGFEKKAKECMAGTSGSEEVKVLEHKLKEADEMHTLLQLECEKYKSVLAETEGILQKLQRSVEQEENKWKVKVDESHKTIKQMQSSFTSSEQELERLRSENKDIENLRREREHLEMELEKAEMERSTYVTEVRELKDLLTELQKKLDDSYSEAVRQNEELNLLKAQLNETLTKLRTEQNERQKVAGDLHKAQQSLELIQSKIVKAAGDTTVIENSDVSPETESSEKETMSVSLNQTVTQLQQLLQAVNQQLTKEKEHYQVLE
Sequence of ATAD3A (human) (Q9NVI7 2-586 limits assumed): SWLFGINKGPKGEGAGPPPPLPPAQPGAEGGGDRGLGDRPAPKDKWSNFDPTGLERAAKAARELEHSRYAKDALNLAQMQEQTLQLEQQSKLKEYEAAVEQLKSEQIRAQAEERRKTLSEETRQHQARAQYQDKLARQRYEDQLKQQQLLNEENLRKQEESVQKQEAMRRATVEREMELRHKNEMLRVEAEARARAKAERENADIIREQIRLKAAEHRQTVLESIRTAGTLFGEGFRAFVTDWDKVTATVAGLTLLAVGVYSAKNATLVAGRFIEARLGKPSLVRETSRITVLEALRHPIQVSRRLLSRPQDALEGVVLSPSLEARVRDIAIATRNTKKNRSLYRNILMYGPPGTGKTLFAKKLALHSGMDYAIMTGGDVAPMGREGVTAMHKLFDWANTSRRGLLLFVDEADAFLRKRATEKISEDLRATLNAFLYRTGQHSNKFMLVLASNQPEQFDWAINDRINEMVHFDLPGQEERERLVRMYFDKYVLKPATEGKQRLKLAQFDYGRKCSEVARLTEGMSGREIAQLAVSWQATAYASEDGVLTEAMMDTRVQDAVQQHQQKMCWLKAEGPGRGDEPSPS
Sequence of IFI16 (human) (Q16666 other isoform, or with tags, fused parts or gaps limits assumed): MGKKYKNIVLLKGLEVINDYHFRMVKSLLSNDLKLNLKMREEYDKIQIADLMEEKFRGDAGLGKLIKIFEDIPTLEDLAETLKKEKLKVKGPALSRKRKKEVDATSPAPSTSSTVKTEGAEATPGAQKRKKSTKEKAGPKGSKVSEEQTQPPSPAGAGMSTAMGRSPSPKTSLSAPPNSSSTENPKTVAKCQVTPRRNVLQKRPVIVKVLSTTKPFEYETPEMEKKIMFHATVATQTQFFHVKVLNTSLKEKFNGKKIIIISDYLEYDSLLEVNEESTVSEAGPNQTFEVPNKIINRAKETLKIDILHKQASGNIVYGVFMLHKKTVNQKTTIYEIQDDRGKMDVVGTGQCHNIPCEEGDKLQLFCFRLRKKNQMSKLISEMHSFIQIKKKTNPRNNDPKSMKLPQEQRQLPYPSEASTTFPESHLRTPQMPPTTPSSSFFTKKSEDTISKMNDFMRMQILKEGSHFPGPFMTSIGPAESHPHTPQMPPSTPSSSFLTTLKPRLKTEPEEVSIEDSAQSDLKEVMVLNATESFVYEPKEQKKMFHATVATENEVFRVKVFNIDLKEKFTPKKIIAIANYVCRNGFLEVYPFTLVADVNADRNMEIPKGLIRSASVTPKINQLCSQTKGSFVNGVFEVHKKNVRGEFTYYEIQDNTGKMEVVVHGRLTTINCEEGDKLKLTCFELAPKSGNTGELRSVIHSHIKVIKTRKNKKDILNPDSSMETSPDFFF
Sequence of ACSL3 (human) (O95573 whole entry): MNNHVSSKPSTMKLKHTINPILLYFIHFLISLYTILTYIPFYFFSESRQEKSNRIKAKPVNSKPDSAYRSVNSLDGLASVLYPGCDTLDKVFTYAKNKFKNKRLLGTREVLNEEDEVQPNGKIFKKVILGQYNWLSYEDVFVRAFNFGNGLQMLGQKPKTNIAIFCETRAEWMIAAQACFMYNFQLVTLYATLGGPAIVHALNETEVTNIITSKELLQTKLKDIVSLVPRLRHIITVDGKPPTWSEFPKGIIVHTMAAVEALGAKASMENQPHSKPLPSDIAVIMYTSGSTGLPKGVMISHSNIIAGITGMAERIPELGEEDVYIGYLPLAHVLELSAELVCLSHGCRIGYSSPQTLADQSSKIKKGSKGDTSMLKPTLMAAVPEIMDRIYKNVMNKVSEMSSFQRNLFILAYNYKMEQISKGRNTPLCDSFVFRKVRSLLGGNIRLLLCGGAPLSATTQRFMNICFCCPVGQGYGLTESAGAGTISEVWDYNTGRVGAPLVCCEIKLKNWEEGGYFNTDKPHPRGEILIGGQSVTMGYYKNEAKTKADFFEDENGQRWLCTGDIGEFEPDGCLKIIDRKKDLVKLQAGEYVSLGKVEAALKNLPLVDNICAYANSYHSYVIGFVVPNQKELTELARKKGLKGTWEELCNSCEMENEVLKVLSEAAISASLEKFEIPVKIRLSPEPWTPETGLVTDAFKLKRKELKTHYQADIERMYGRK
Sequence of NTPCR (human) (Q9BSD7 2-190 limits assumed): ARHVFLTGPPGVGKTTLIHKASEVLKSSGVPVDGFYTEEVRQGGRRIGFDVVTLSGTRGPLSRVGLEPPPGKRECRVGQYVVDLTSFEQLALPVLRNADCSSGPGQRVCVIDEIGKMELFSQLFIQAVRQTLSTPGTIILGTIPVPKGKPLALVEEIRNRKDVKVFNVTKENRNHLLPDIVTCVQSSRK

IgG control (Millipore Sigma 12-371) (antibody)
co-IP mass spectrometry count [1]: 0 | co-IP mass spectrometry count [2]: 0 | co-IP mass spectrometry count [3]: 0

C-terminal FLAG tagged B3GNT2 (from UniProt Q9NY97 1-397) (enzyme)
co-IP mass spectrometry count [4]: 9 | co-IP mass spectrometry count [5]: 2 | co-IP mass spectrometry count [6]: 2 | co-IP mass spectrometry count [7]: 2 | co-IP mass spectrometry count [8]: 63 | co-IP mass spectrometry count [9]: 15 | co-IP mass spectrometry count [10]: 9 | co-IP mass spectrometry count [11]: 5 | co-IP mass spectrometry count [12]: 2 | co-IP mass spectrometry count [13]: 2 | co-IP mass spectrometry count [14]: 2 | co-IP mass spectrometry count [15]: 2 | co-IP mass spectrometry count [16]: 2 | co-IP mass spectrometry count [17]: 2 | co-IP mass spectrometry count [18]: 3 | co-IP mass spectrometry count [19]: 2 | co-IP mass spectrometry count [20]: 9 | co-IP mass spectrometry count [21]: 2 | co-IP mass spectrometry count [22]: 5 | co-IP mass spectrometry count [23]: 5 | co-IP mass spectrometry count [24]: 9 | co-IP mass spectrometry count [25]: 2 | co-IP mass spectrometry count [26]: 2 | co-IP mass spectrometry count [27]: 2 | co-IP mass spectrometry count [28]: 7 | co-IP mass spectrometry count [29]: 5 | co-IP mass spectrometry count [30]: 5 | co-IP mass spectrometry count [31]: 16 | co-IP mass spectrometry count [32]: 2 | co-IP mass spectrometry count [33]: 6 | co-IP mass spectrometry count [34]: 0 | co-IP mass spectrometry count [35]: 4 | co-IP mass spectrometry count [36]: 9 | co-IP mass spectrometry count [37]: 11 | co-IP mass spectrometry count [38]: 3
